Results reported in patent publication US20260224723A1 (DUALITY BIOLOGICS SUZHOU, published 2026).

Legend:
[1] = biological target: T1, Cynomolgus monkey full-length B7H3 on transfected FlpinCHO cells (cynomolgus monkey); assay: FACS on cynomolgus monkey B7H3-transfected FlpinCHO cell pool
T1 construct: whole, on cells; also called W3XX088-FlpinCHO.cProl.pool
Description: FACS was used to detect the binding of antibodies to cynomolgus monkey B7H3. FlpinCHO cells were transfected with cynomolgus monkey B7H3 (W3XX088-FlpinCHO.cProl.pool) (1×10⁵ cells/well), and the transfected cells were incubated with various concentrations of antibodies (3.16-fold serially diluted with 1×DPBS/1% BSA from 50 nM to 0.0005 nM) in a volume of 100 μL/well in a refrigerator set to 4° C. for 1 h. Anti-human B7H3 reference antibody enoblituzumab (MacroGeneics) was used as a positive control. Human IgG1 isotype antibody was used as a negative control. After washing the cells with 1×DPBS/1% BSA, Alexa 647 goat anti-human antibody (diluted in a 1:500 ratio in 1×DPBS/1% BSA) was added. The cells were incubated in a refrigerator set to 4° C. for 0.5 h in the dark. The mean fluorescence intensity (MFI) of the cells was measured by a flow cytometry and analyzed by FlowJo. EC₅₀ values were calculated by four-parameter non-linear regression analysis using GraphPad Prism 7 software.

[2] = biological target: T2, Human BTNL2 protein, His Tag (human, UniProt Q9UIR0-1 24-455, limits assumed); assay: ELISA, protein immobilized on plate, serially diluted antibody
T2 construct: Bought protein; also called AtaGenix ATMP02212HU; not shown: His tag
T2 sequence (looked up): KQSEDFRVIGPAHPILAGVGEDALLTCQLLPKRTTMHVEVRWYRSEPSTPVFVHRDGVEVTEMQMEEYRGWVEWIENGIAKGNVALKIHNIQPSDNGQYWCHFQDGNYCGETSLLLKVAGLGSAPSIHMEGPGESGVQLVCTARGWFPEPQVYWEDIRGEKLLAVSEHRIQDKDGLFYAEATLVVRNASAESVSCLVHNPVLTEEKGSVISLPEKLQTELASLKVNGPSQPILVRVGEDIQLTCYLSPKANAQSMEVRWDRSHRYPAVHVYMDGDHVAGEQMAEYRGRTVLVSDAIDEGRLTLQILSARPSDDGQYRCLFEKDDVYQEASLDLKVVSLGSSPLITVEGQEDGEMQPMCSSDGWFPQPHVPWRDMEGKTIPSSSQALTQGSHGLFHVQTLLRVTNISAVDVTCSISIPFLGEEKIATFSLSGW
Description: (§1) Human PD-L1 protein (see the table above), human B7-H2 protein, human B7-H3 protein, human B7-H4 protein, human B7-H5 protein, human B7-H6 protein, human B7-1 protein, human B7-2 protein, human PD-L2 protein, human B7-H7 protein, and human BTNL2 protein were separately immobilized on 96-well plates by incubation at 4° C. overnight. The 96-well plates were then blocked by incubation with 1% BSA in PBS at 37° C. for 1 h. After blocking, the 96-well plates were washed 3 times with PBST (PBS containing 0.05% Tween 20). […] After incubation, the 96-well plates were washed 3 times with PBST, incubated with a secondary antibody (see the table above) in binding buffer at 37° C. for 1 h, and then washed again. TMB was added for color development, and the reaction was stopped by 1 M H₂SO₄.

[3] = biological target: T3, Human B7-H3(4Ig), His Tag (human, UniProt Q5ZPR3 29-461); assay: ELISA, plate coated with 2 µg/mL recombinant human B7-H3 (4Ig), serially diluted antibody, HRP anti-human secondary antibody, OD450
T3 construct: also called recombinant human B7H3 antigen; human B7-H3 protein; not shown: His tag
T3 sequence (looked up): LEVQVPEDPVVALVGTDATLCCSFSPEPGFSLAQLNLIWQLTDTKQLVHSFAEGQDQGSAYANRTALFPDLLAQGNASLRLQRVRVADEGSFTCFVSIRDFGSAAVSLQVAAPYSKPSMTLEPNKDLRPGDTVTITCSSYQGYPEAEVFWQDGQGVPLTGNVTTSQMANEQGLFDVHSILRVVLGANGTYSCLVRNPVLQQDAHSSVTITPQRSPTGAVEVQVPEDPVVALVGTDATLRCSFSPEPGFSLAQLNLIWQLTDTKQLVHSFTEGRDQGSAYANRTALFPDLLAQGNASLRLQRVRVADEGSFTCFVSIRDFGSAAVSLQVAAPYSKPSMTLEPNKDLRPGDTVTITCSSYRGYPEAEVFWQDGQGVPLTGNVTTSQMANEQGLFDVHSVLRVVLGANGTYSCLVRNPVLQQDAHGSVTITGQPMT
Description: A 96-well ELISA plate was coated with 2 μg/mL recombinant human B7H3 antigen (see the table above) at 30 μL/well and kept at 4° C. overnight. The following day, the well plate was washed 3 times with PBST and then blocked with 5% skim milk for 2 h. […] The plate was then washed 3 times with PBST, and an HRP-labeled anti-human secondary antibody diluted in a 1:5000 ratio was then added at 100 μL/well and incubated for 1 h. After the incubation was complete, the plate was washed six times with PBST, and TMB (SurModics, TMBS-1000-01) was added for color development. Based on the results of the color development, the reaction was stopped by adding 2M HCl, and the plate was read by a microplate reader (Molecular Devices, SpecterMax 190) at OD450.

[4] = biological target: T2, Human BTNL2 protein, His Tag; assay: ELISA, protein immobilized on plate, serially diluted antibody-drug conjugate
Description: as §1

B1: W301088-1.145.16-z3-p1-uIgG1KV320 (antibody, V domains shown)
VH: QVQLQESGPGLVKPSQTLSLTCTVTDYSITGDYAWNWIRQHPGKGLEWIGYISYSGSTSYNPSLQSRVTISRDTSKNQFSLKLSSVTAADTAVYFCARSLGRRWYFVVWGQGTTVTVSS
VL: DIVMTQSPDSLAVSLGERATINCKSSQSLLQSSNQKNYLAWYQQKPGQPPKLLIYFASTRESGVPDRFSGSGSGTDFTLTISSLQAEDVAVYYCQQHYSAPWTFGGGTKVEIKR
notes: Humanized, PTM-removed (VL N027dQ) antibody; human IgG1 LALA, kappa; also called WBP301088; W301088-z3-p1
EC50 [1]: 4.68 nM
binding result [2]: no binding
EC50 (read off the curve) [3]: ~0.1 µg/mL

B2: Antibody-drug conjugate WBP301088-X2 (DAR6) (antibody, human IgG1, kappa, L234A L235A, V domains shown)
VH: B1 VH
VL: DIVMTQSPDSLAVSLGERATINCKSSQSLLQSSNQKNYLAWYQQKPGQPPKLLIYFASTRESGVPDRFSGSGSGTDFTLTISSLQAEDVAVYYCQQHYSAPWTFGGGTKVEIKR
modifications: linker-payload X2 conjugated after TCEP reduction; drug loading (DAR) 5.68 per antibody; sites not stated
binding result [4]: no binding

B3: Enoblituzumab (MacroGenics) (antibody, V domains shown)
VH: EVQLVESGGGLVQPGGSLRLSCAASGFTFSSFGMHWVRQAPGKGLEWVAYISSDSSAIYYADTVKGRFTISRDNAKNSLYLQMNSLRDEDTAVYYCGRGRENIYYGSRLDYWGQGTTVTVSS
VL: DIQLTQSPSFLSASVGDRVTITCKASQNVDTNVAWYQQKPGKAPKALIYSASYRYSGVPSRFSGSGSGTDFTLTISSLQPEDFATYYCQQYNNYPFTFGQGTKLEIKR
EC50 [1]: 9.58 nM

B4: W301088-1.145.16-xIgG1KV320 (antibody, V domains shown)
VH: DVQLQESGPGLVKPSQSLSLTCTVTDYSITGDYAWNWIRQFPGNKLEWMGYISYSGSTSYNPSLQSRISITRDTSKNQFFLQLNSVTSEDTATYFCARSLGRRWYFVVWGAGTTVTVSA
VL: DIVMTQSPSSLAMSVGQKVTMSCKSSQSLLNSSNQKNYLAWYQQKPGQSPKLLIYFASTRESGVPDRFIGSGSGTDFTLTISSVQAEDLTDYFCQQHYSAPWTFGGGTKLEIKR
EC50 [1]: 5.25 nM
